Assay results from patent publication US20200270325A1 (Merck Sharp & Dohme, published 2020).
Numbered stars: 1 amine (or outer) side, 2 acyl side, 3 side chain; on linkers, the order of the positions; unused ones are H or OH. Square brackets hold non-standard residues; d marks the D form. Side chains are listed from the residue outwards. Ends that are not written are not given here. * marks the point of attachment. C16 diacid = O=C(O)CCCCCCCCCCCCCCC(=O)*; γGlu = O=C(O)[C@H](CCC(=O)[*:2])N[*:1]; Met(O2) = CS(=O)(=O)CC[C@H](N)C(=O)O; AEEA = NCCOCCOCC(=O)O; Aib = CC(C)(N)C(=O)O

How the values were obtained:
[1] = biological target: human Glucagon receptor (GCGR) (human, UniProt P47871 26-477); test: cell-based or functional assay
human Glucagon receptor (GCGR), sequence (P47871 26-477): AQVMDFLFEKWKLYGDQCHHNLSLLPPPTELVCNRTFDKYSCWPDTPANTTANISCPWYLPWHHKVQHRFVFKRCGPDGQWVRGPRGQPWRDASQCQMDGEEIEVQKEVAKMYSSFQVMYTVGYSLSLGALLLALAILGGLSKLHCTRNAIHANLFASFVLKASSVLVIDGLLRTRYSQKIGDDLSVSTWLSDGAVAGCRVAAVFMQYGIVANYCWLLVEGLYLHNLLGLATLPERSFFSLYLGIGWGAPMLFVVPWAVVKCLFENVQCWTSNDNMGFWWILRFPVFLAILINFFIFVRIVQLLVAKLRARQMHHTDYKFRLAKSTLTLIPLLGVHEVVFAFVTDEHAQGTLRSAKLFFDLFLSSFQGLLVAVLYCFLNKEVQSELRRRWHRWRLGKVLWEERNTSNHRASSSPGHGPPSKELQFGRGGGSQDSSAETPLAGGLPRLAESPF

[2] = biological target: human GLP-1 receptor (GLP1R) (human, UniProt P43220 24-463); test: cell-based or functional assay

Binder	GCGR EC50 human [1] [nM]	GLP1R EC50 human [2] [nM]
H[Aib]QGTFTSDYSKYLDARAAK([AEEA-AEEA-γGlu-C16 diacid])DFVQWL[Met(O2)][γGlu]T-NH2 (N-terminus assumed; SMILES CC(C)C[C@H](NC(=O)[C@H](Cc1ccc(O)cc1)NC(=O)[C@H](CCCCN)NC(=O)[C@H](CO)NC(=O)[C@H](Cc1ccc(O)cc1)NC(=O)[C@H](CC(=O)O)NC(=O)[C@H](CO)NC(=O)[C@@H](NC(=O)[C@H](Cc1ccccc1)NC(=O)[C@@H](NC(=O)CNC(=O)[C@H](CCC(N)=O)NC(=O)C(C)(C)NC(=O)[C@@H](N)Cc1c[nH]cn1)[C@@H](C)O)[C@@H](C)O)C(=O)N[C@@H](CC(=O)O)C(=O)N[C@@H](C)C(=O)N[C@@H](CCCNC(=N)N)C(=O)N[C@@H](C)C(=O)N[C@@H](C)C(=O)N[C@@H](CCCCNC(=O)COCCOCCNC(=O)COCCOCCNC(=O)CC[C@H](NC(=O)CCCCCCCCCCCCCCC(=O)O)C(=O)O)C(=O)N[C@@H](CC(=O)O)C(=O)N[C@@H](Cc1ccccc1)C(=O)N[C@H](C(=O)N[C@@H](CCC(N)=O)C(=O)N[C@@H](Cc1c[nH]c2ccccc12)C(=O)N[C@@H](CC(C)C)C(=O)N[C@@H](CCS(C)(=O)=O)C(=O)N[C@@H](CCC(=O)N[C@H](C(N)=O)[C@@H](C)O)C(=O)O)C(C)C) [TP826]	0.67	0.253
H[Aib]QGTFTSDYSKYLD[Aib]RAAQDFVK([AEEA-AEEA-γGlu-C16 diacid])WL[Met(O2)]ET-NH2 (N-terminus assumed; SMILES CC(C)C[C@H](NC(=O)[C@H](Cc1c[nH]c2ccccc12)NC(=O)[C@H](CCCCNC(=O)COCCOCCNC(=O)COCCOCCNC(=O)CC[C@H](NC(=O)CCCCCCCCCCCCCCC(=O)O)C(=O)O)NC(=O)[C@@H](NC(=O)[C@H](Cc1ccccc1)NC(=O)[C@H](CC(=O)O)NC(=O)[C@H](CCC(N)=O)NC(=O)[C@H](C)NC(=O)[C@H](C)NC(=O)[C@H](CCCNC(=N)N)NC(=O)C(C)(C)NC(=O)[C@H](CC(=O)O)NC(=O)[C@H](CC(C)C)NC(=O)[C@H](Cc1ccc(O)cc1)NC(=O)[C@H](CCCCN)NC(=O)[C@H](CO)NC(=O)[C@H](Cc1ccc(O)cc1)NC(=O)[C@H](CC(=O)O)NC(=O)[C@H](CO)NC(=O)[C@@H](NC(=O)[C@H](Cc1ccccc1)NC(=O)[C@@H](NC(=O)CNC(=O)[C@H](CCC(N)=O)NC(=O)C(C)(C)NC(=O)[C@@H](N)Cc1c[nH]cn1)[C@@H](C)O)[C@@H](C)O)C(C)C)C(=O)N[C@@H](CCS(C)(=O)=O)C(=O)N[C@@H](CCC(=O)O)C(=O)N[C@H](C(N)=O)[C@@H](C)O) [TP815]	0.084	0.12
H[Aib]QGTFTSDYSKYLDARAAK([AEEA-AEEA-γGlu-C16 diacid])EFVQWL[Met(O2)]DT-NH2 (N-terminus assumed; SMILES CC(C)C[C@H](NC(=O)[C@H](Cc1ccc(O)cc1)NC(=O)[C@H](CCCCN)NC(=O)[C@H](CO)NC(=O)[C@H](Cc1ccc(O)cc1)NC(=O)[C@H](CC(=O)O)NC(=O)[C@H](CO)NC(=O)[C@@H](NC(=O)[C@H](Cc1ccccc1)NC(=O)[C@@H](NC(=O)CNC(=O)[C@H](CCC(N)=O)NC(=O)C(C)(C)NC(=O)[C@@H](N)Cc1c[nH]cn1)[C@@H](C)O)[C@@H](C)O)C(=O)N[C@@H](CC(=O)O)C(=O)N[C@@H](C)C(=O)N[C@@H](CCCNC(=N)N)C(=O)N[C@@H](C)C(=O)N[C@@H](C)C(=O)N[C@@H](CCCCNC(=O)COCCOCCNC(=O)COCCOCCNC(=O)CC[C@H](NC(=O)CCCCCCCCCCCCCCC(=O)O)C(=O)O)C(=O)N[C@@H](CCC(=O)O)C(=O)N[C@@H](Cc1ccccc1)C(=O)N[C@H](C(=O)N[C@@H](CCC(N)=O)C(=O)N[C@@H](Cc1c[nH]c2ccccc12)C(=O)N[C@@H](CC(C)C)C(=O)N[C@@H](CCS(C)(=O)=O)C(=O)N[C@@H](CC(=O)O)C(=O)N[C@H](C(N)=O)[C@@H](C)O)C(C)C) [TP812]	0.2	0.088
H[Aib]QGTFTSDYSKYLDARAAQEFVK([AEEA-AEEA-γGlu-C16 diacid])WL[Met(O2)]DT-NH2 (N-terminus assumed; SMILES CC(C)C[C@H](NC(=O)[C@H](Cc1ccc(O)cc1)NC(=O)[C@H](CCCCN)NC(=O)[C@H](CO)NC(=O)[C@H](Cc1ccc(O)cc1)NC(=O)[C@H](CC(=O)O)NC(=O)[C@H](CO)NC(=O)[C@@H](NC(=O)[C@H](Cc1ccccc1)NC(=O)[C@@H](NC(=O)CNC(=O)[C@H](CCC(N)=O)NC(=O)C(C)(C)NC(=O)[C@@H](N)Cc1c[nH]cn1)[C@@H](C)O)[C@@H](C)O)C(=O)N[C@@H](CC(=O)O)C(=O)N[C@@H](C)C(=O)N[C@@H](CCCNC(=N)N)C(=O)N[C@@H](C)C(=O)N[C@@H](C)C(=O)N[C@@H](CCC(N)=O)C(=O)N[C@@H](CCC(=O)O)C(=O)N[C@@H](Cc1ccccc1)C(=O)N[C@H](C(=O)N[C@@H](CCCCNC(=O)COCCOCCNC(=O)COCCOCCNC(=O)CC[C@H](NC(=O)CCCCCCCCCCCCCCC(=O)O)C(=O)O)C(=O)N[C@@H](Cc1c[nH]c2ccccc12)C(=O)N[C@@H](CC(C)C)C(=O)N[C@@H](CCS(C)(=O)=O)C(=O)N[C@@H](CC(=O)O)C(=O)N[C@H](C(N)=O)[C@@H](C)O)C(C)C) [TP813]	0.21	0.14
H[Aib]QGTFTSDYSKYLDARAAQK([AEEA-AEEA-γGlu-C16 diacid])FVQWL[Met(O2)][γGlu]T-NH2 (N-terminus assumed; SMILES CC(C)C[C@H](NC(=O)[C@H](Cc1ccc(O)cc1)NC(=O)[C@H](CCCCN)NC(=O)[C@H](CO)NC(=O)[C@H](Cc1ccc(O)cc1)NC(=O)[C@H](CC(=O)O)NC(=O)[C@H](CO)NC(=O)[C@@H](NC(=O)[C@H](Cc1ccccc1)NC(=O)[C@@H](NC(=O)CNC(=O)[C@H](CCC(N)=O)NC(=O)C(C)(C)NC(=O)[C@@H](N)Cc1c[nH]cn1)[C@@H](C)O)[C@@H](C)O)C(=O)N[C@@H](CC(=O)O)C(=O)N[C@@H](C)C(=O)N[C@@H](CCCNC(=N)N)C(=O)N[C@@H](C)C(=O)N[C@@H](C)C(=O)N[C@@H](CCC(N)=O)C(=O)N[C@@H](CCCCNC(=O)COCCOCCNC(=O)COCCOCCNC(=O)CC[C@H](NC(=O)CCCCCCCCCCCCCCC(=O)O)C(=O)O)C(=O)N[C@@H](Cc1ccccc1)C(=O)N[C@H](C(=O)N[C@@H](CCC(N)=O)C(=O)N[C@@H](Cc1c[nH]c2ccccc12)C(=O)N[C@@H](CC(C)C)C(=O)N[C@@H](CCS(C)(=O)=O)C(=O)N[C@@H](CCC(=O)N[C@H](C(N)=O)[C@@H](C)O)C(=O)O)C(C)C) [TP827]	0.133	0.081
H[Aib]QGTFTSDYSKYLDARAAK([AEEA-AEEA-γGlu-C16 diacid])DFVQWL[Met(O2)]ET-NH2 (N-terminus assumed; SMILES CC(C)C[C@H](NC(=O)[C@H](Cc1ccc(O)cc1)NC(=O)[C@H](CCCCN)NC(=O)[C@H](CO)NC(=O)[C@H](Cc1ccc(O)cc1)NC(=O)[C@H](CC(=O)O)NC(=O)[C@H](CO)NC(=O)[C@@H](NC(=O)[C@H](Cc1ccccc1)NC(=O)[C@@H](NC(=O)CNC(=O)[C@H](CCC(N)=O)NC(=O)C(C)(C)NC(=O)[C@@H](N)Cc1c[nH]cn1)[C@@H](C)O)[C@@H](C)O)C(=O)N[C@@H](CC(=O)O)C(=O)N[C@@H](C)C(=O)N[C@@H](CCCNC(=N)N)C(=O)N[C@@H](C)C(=O)N[C@@H](C)C(=O)N[C@@H](CCCCNC(=O)COCCOCCNC(=O)COCCOCCNC(=O)CC[C@H](NC(=O)CCCCCCCCCCCCCCC(=O)O)C(=O)O)C(=O)N[C@@H](CC(=O)O)C(=O)N[C@@H](Cc1ccccc1)C(=O)N[C@H](C(=O)N[C@@H](CCC(N)=O)C(=O)N[C@@H](Cc1c[nH]c2ccccc12)C(=O)N[C@@H](CC(C)C)C(=O)N[C@@H](CCS(C)(=O)=O)C(=O)N[C@@H](CCC(=O)O)C(=O)N[C@H](C(N)=O)[C@@H](C)O)C(C)C) [TP814]	0.156	0.078
H[Aib]QGTFTSDYSKYLDARAAQK([AEEA-AEEA-γGlu-C16 diacid])FVQWL[Met(O2)]ET-NH2 (N-terminus assumed; SMILES CC(C)C[C@H](NC(=O)[C@H](Cc1ccc(O)cc1)NC(=O)[C@H](CCCCN)NC(=O)[C@H](CO)NC(=O)[C@H](Cc1ccc(O)cc1)NC(=O)[C@H](CC(=O)O)NC(=O)[C@H](CO)NC(=O)[C@@H](NC(=O)[C@H](Cc1ccccc1)NC(=O)[C@@H](NC(=O)CNC(=O)[C@H](CCC(N)=O)NC(=O)C(C)(C)NC(=O)[C@@H](N)Cc1c[nH]cn1)[C@@H](C)O)[C@@H](C)O)C(=O)N[C@@H](CC(=O)O)C(=O)N[C@@H](C)C(=O)N[C@@H](CCCNC(=N)N)C(=O)N[C@@H](C)C(=O)N[C@@H](C)C(=O)N[C@@H](CCC(N)=O)C(=O)N[C@@H](CCCCNC(=O)COCCOCCNC(=O)COCCOCCNC(=O)CC[C@H](NC(=O)CCCCCCCCCCCCCCC(=O)O)C(=O)O)C(=O)N[C@@H](Cc1ccccc1)C(=O)N[C@H](C(=O)N[C@@H](CCC(N)=O)C(=O)N[C@@H](Cc1c[nH]c2ccccc12)C(=O)N[C@@H](CC(C)C)C(=O)N[C@@H](CCS(C)(=O)=O)C(=O)N[C@@H](CCC(=O)O)C(=O)N[C@H](C(N)=O)[C@@H](C)O)C(C)C) [TP825]	0.07	0.036
